The source of these data is paper PMC2836968 (Molecular Biology of the Cell, 2010).

A word on the Kd: it is the concentration at which binding is half-saturated. A higher Kd goes with lower affinity.

In the experiment the target is human Hsp90β (human, UniProt P08238 1-724). The experiment in a line: SPR. For orientation: Surface plasmon resonance follows binding to a sensor surface in real time, without labels.
Sequence of human Hsp90β (P08238 whole entry): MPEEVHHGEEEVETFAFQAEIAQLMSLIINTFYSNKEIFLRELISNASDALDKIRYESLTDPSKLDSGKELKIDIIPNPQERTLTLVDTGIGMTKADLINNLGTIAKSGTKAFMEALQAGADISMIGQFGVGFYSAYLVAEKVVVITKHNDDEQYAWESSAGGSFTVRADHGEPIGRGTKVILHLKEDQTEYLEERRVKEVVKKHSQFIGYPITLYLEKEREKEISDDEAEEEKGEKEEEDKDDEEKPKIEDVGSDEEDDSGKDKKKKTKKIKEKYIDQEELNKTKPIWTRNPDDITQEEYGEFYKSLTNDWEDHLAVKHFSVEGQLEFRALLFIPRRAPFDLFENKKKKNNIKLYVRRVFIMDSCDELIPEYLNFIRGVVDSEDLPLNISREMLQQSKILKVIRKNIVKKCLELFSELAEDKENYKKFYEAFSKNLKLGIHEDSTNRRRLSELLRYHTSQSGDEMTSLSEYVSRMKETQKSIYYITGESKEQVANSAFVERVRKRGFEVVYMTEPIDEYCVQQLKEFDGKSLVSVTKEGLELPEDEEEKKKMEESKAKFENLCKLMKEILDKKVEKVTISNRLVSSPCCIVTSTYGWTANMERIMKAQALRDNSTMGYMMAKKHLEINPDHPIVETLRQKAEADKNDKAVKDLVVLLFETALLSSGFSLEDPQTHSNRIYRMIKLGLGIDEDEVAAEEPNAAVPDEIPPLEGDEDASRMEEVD

B1: Aha1 C-terminal domain (amino acids 163-338, with the linker region 163-200) (domain or fragment)
chain: MILPTMNGESVDPVGQPALKTEERKAKPAPSKTQARPVGVKIPTCKITLKETFLTSPEELYRVFTTQELVQAFTHAPATLEADRGGKFHMVDGNVSGEFTDLVPEKHIVMKWRFKSWPEGHFATITLTFIDKNGETELCMEGRGIPAPEEERTRQGWQRYYFEGIKQTFGYGARLF
Molecule B1 gave a Kd of 3.8 µM.

B2: Aha1 N-terminal domain (amino acids 1-162) (domain or fragment)
chain: MAKWGEGDPRWIVEERADATNVNNWHWTERDASNWSTDKLKTLFLAVQVQNEEGKCEVTEVSKLDGEASINNRKGKLIFFYEWSVKLNWTGTSKSGVQYKGHVEIPNLSDENSVDEVEISVSLAKDEPDTNLVALMKEEGVKLLREAMGIYISTLKTEFTQG
Molecule B2 had a Kd of 2.5 µM.
